From the supplement of paper PMC9170038

System: MS2 coat protein
Assay: apparent KD of MS2 coat protein; designed switch direction (-1 OFF switch, 1 ON switch): -1; higher = weaker reporter binding
In short: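 SNAP-549-labelled MS2 coat protein was titrated, doubling from 0.7 or 1.5 nM to 3 µM, over designed RNA switches transcribed on Illumina chips by stalled E. coli RNA polymerase. Runs were done without input, with 200 uM small-molecule ligand, or with an oligonucleotide input. Apparent KD is the per-design median over clusters of curve-fitted normalised fluorescence.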

[1] = Eterna round: R95, input ligand: microRNA oligo, concentration not stated
[2] = input ligand: microRNA oligo, concentration not stated
[3] = Eterna round: R95, input ligand: FMN 200 uM
[4] = Eterna round: R95, input ligand: none

Sequence | apparent KD of MS2 coat protein (input ligand: FMN 200 uM) [nM] | apparent KD of MS2 coat protein (input ligand: none) [nM] | apparent KD of MS2 coat protein [1] [nM] | apparent KD of MS2 coat protein [2] [nM] | apparent KD of MS2 coat protein [3] [nM] | apparent KD of MS2 coat protein [4] [nM]
AGCCACAGAGGAUAUACAUACAUCCAGUAGCGUAUAUCGCUACAUGAGGAUCACCCAUGUAGAAGGCUGUGGCA [Omei Ex2 BD B23] (Eterna round: R97, puzzle: Exclusion 2) | 86.7 | 18.4 |  |  |  | 
GUUAGUUAAGGAUAUACAGGGAGCUGCGGCGUCUCGCCGCAACAUGAGGAUCACCCAUGUAGAAGGUGGCCAUU [JL ViennaUCT Enbibi mod 3] (puzzle: Exclusion 2) |  |  | 471 |  |  | 
CUAGCAAUUGUAGGAUAUCGAUGUGUUUCACAUCGAGAAGGACAUGAGGAUCACCCAUGUGAAAGGAUCGUGAGAUCCAGCUAG [JL ENG1 3.75] (Eterna round: R96, puzzle: Exclusion NG 1) | 96.7 | 30.3 |  | 23.1 |  | 
AGGAUGUGAGGAUAUCCAUCCCGCGAAUGCGGGUAAUAAAUGGAGAAGGCACAUGAGGAUCACCCAUGUGAUGA [Laleatus] (Eterna round: R97, puzzle: Exclusion 4) | 978 | 47.8 |  |  |  | 
UUAUUGUGAGGAUAUCCAAUAUAUGACAUGAGGAUCACCCAUGUUUCCACUCGUACCUCCGGAGAAGGCACUUAUA [Ex5 #47] (Eterna round: R97, puzzle: Exclusion 5) | 28.6 | 32.3 |  |  |  | 
AUCAGCUCGUGAGGAUAUAUAUAUACAUGAGGAUCACCCAUGUUAGAUCAGCUUCGGCAGUAUAUAUAGAAGGCACGAGCUGAU [ENG2/15-A2] (Eterna round: R96, puzzle: Exclusion NG 2) | 233 | 79.6 |  | 90.6 |  | 
CAGUACUGAGGAUAUACAUGAGGAUCACCCAUGUGAUAAGGUUAGGAAACUAACCUAUGUAGAAGGCAGUACUG [Eli x3 4.08] (Eterna round: R97, puzzle: Exclusion 3) | 603 | 104 |  |  |  | 
UUUAAUUUUUUUUUUUUACAAGCUUUUUGCUCGUCUUAUACAUGAGGAUCACCCAUGUGGGUAAGAGAUAAAUUAUC [JMF 13] (puzzle: Sensor v3, turn-off variant 2) |  |  | 36.3 |  | 24.9 | 27.8
CAGUACUGAGGAUAUACAUGAGGAUCACCCAUGUGUUCCGGCUAGGAUACUAGCAAAGGUAGAAGGCAGUACUG [Mat - Exclusion 3 - Eli Mod - D22] (Eterna round: R97, puzzle: Exclusion 3) | 458 | 35.4 |  |  |  | 
CACGAACAUGAGGAUCACCCAUGUCAGGAUAUGAGGCUUUGCGUGCCGCAUUUUGGUCUUAGAAGGGACAGCCG [Eternabot (L2) Solution 49] (Eterna round: R97, puzzle: Exclusion 1) | 22.3 | 23 |  |  |  | 
CGAUAAAUGACAGGAUAUUACGCUAAUUGGGACCCUUAACCGACAUGAGGAUCACCCAUGUUUUAUAAGAAGGGUCGUUUGUCA [Eternabot solution 47] (Eterna round: R96, puzzle: Exclusion NG 2) | 21 | 13.2 |  | 11.2 |  | 
UUGUACAGAGGAUAUACAUGAGGAUCACCCAUGUGUUUCAGCUAGGAGACUAGCGAAAGUAGAAGGCUGUACUC [salish99_ex3_r4_015] (Eterna round: R97, puzzle: Exclusion 3) | 23.9 | 11.1 |  |  |  | 
GCUACUCCAGUCAGGAUAUGGAUCGGCUAAAAGACCCAGAAGGGACUUGAGGAUCACCCAAGUAACGGCUCGGG [Soveare] (Eterna round: R97, puzzle: Brourd's mod of Exclusion 4) | 378 | 54.2 |  |  |  | 
GGUGCGUUUGUGAGGAUAUGCUGGUCCUUGGAUCAGCAGAAGGCACAUGAGGAUCACCCAUGUGGUGUCCGUCC [salish99_Bmod_Ex4_039] (puzzle: Brourd's mod of Exclusion 4) |  |  | 180 |  |  | 
AAAUUCAGAGGAUAUGCGCAUAGAUAAGACUUUUUUUUUUAACAUGAGGAUCACCCAUGUAGAAGGCUGUAACA [Ex2 #50] (Eterna round: R97, puzzle: Exclusion 2) | 25.4 | 21.2 |  |  |  | 
AGACAGUCAGGAUAUACAUGAGGAUCACCCAUGUUGAGAUGAGAAAGGGCAGGAAUAGGUAGAAGGGACGAGAG [JR_Exclu3_Sub037] (puzzle: Exclusion 3) |  |  | 20.1 |  | 30.5 | 26.2
GAAAAGGUAGAGGAUAUUUCAGAUCAAAGCUGCAAAGAAGGCUGCACAUGAGGAUCACCCAUGUGGUCUUCAAA [Mod of Quesina 9 - Jieux - Exclusion 6] (Eterna round: R97, puzzle: Exclusion 6) | 121 | 19.7 |  |  |  | 

Sequence | apparent KD of MS2 coat protein (input ligand: FMN 200 uM) [nM] | apparent KD of MS2 coat protein (input ligand: none) [nM] | apparent KD of MS2 coat protein [1] [nM] | apparent KD of MS2 coat protein [2] [nM] | apparent KD of MS2 coat protein [3] [nM] | apparent KD of MS2 coat protein [4] [nM]
CCAGCGUAUGUUAGGAUAUGCUGGUCGAAAGAUCAGCAGAAGGAACAUGAGGAUCACCCAUGUGGAAAAGUUGG [Mod of JL 25 - Jieux - Brourd's mod of Exclusion 4] (Eterna round: R97, puzzle: Brourd's mod of Exclusion 4) | 184 | 30.4 |  |  |  | 
UUUUAACAUGAGGAUCACCCAUGUGAGGAUAUCGAAAUUUAUAUUAAUAUUAUUAUAUCGAGAAGGCACAUUUU [JMF 40] (puzzle: Exclusion 1) |  |  | 86.6 |  |  | 
GGAUAUAAGUCAGGAUAUGAGCGCAACUGACGAUCAGAAGGGACACAUGAGGAUCACCCAUGUGAUCUAUCAAUAUUAUACAUG [Prohibition 93 - Jieux - Exclusion NG 1] (Eterna round: R96, puzzle: Exclusion NG 1) | 29.1 | 22.4 |  | 19 |  | 
UCUCGAUGGCAAGGAUAUCCUACAUUGUUCUGGCCCGGGCAUGCUACAUGAGGAUCACCCAUGUGGGAGAAGGUGCGCCACUGC [Design 26] (Eterna round: R96, puzzle: Exclusion NG 2) | 118 | 93.3 |  | 55 |  | 
AUGAGACAUGAGGAUCACCCAUGUGAGGAUAUGUAUGGAUGUUGGAAAGAAUGAGAGAACAGAAGGCACGUAGA [JR_Exclu1_Sub063] (puzzle: Exclusion 1) |  |  | 104 |  | 93.1 | 149
UUUAAUUUUUUUUUUUUACAAGCUUUUUGCUCGUCUUAUACAUGAGGAUCACCCAUGUAAAUGAGGGAUAAAUUAUC [JMF 38] (puzzle: Sensor v3, turn-off variant 2) |  |  | 21.3 |  | 15.4 | 15.7
UUUAAUCGUGACAUGGGUGACAUGAGGAUCACCCAUGUCACAAGCUUUUUGCUCGUCUUAUAAUUAACCCAUGUCAC [LRO Sensor-off var1-11 mod of Stov1-13-A1 by Brourd] (Eterna round: R97, puzzle: Sensor, turn-off variant 1) | 15.1 | 15.6 |  |  |  | 
GCAGCAAAUUCCAUUAAAACCACAUGAGGAUCACCCAUGUCUCAGGAUAUGGUCUGGAUUACAGGCCAGAAGGGAGAAAGCUGC [Eli exng3 - 055] (Eterna round: R96, puzzle: Exclusion NG 3) | 10.1 | 16.3 |  | 11.9 |  | 
ACAUGGGAGCGAGGAUAUAGCCCAUGUGAAGAACUAGAAGGCGCAGACAUGAGGAUCACCCAUGUGUUCAUGAGGAGGUGGACA (Eterna round: R96, puzzle: Exclusion NG 1) | 72.7 | 69.4 |  | 42.4 |  | 
UAACGUGGCCUGAUCCUCCCUAACAUGAGGAUCACCCAUGUCUAGGAUAUCCGAACAAACAACGAGGAGAAGGAGACGAAACAU [Veleedan] (Eterna round: R96, puzzle: Exclusion NG 3) | 37.5 | 28.3 |  | 22.7 |  | 
ACUUACUGAGGAUAUACAUAGAUUUACAUGAGGAUCACCCAUGUUCCUCUAUGUAUAUAUGUAGAAGGCAGAAGAG [Mat - Exclusion 5 - JL Mod - D35] (Eterna round: R97, puzzle: Exclusion 5) | 56.3 | 21.6 |  |  |  | 
GUGUAGAUAGGAUAUGCUUAGAGCUUACGAAAGUAGGCUCUACAUGAGGAUCACCCAUGUAGAAGGGUCUACAC [Dot plot directed A v16] (puzzle: Exclusion 2) |  |  | 24.9 |  |  | 
CAUGAUUGACGAGGAUAUUGUUCUACAUGGCGACGAGAAGGCGUCUGUCACAUGAGGAUCACCCAUGUGAGUCUGGUGAAUGAG [Ex NG1 #83] (Eterna round: R96, puzzle: Exclusion NG 1) |  |  |  | 25.7 |  | 
ACCCAACAUGAGGAUCACCCAUGUCAGGAUAUCCAUCAAAAGCACGAAAGGCGAGGAUGGAGAAGGGACAGAGG [ChP 04-04-2015 #2] (puzzle: Exclusion 1) |  |  | 178 |  | 335 | 128
UCCUUAGCGGUCAGGAUAUACACCCGUUUCUCCUUGUAGAAGGGACAUGAGGAUCACCCAUGUACAGUACAUCU [alecazam64] (Eterna round: R97, puzzle: Brourd's mod of Exclusion 4) | 18.6 | 17.6 |  |  |  | 
GGUGGACAUGAGGAUCACCCAUGUGAGGAUAUCGGCUGGUACGUGUUGGCUGGCAUCUCGAGAAGGCACAUAGG [Exclusion 1 V60] (puzzle: Exclusion 1) |  |  | 102 |  |  | 
GUCGUGUUAGGAUAUGGCAACUACUAAUAAAUUAGUAGUUGUUAGAAGGAACAUGAGGAUCACCCAUGUAUGAC [-23, -22.5 kcal, A 34%] (Eterna round: R97, puzzle: Exclusion 4) | 122 | 39.9 |  |  |  | 
